Assay results reported in patent US20120039803A1, “PRETARGETING KIT, METHOD AND AGENTS USED THEREIN” (KONINKLIJKE PHILIPS ELECTRONICS N.V., priority 2009, published 2012).

Test system: human colon cancer cell line LS174T
Details: mouse, in vivo

Question: What does the source list for “Rtx-TCO: TCO-modified rituximab for control in vivo experiments; lacks specificity for TAG72”?
Answer: tumor-to-blood ratio (T/B): 0.6±0.0; tumor-to-muscle ratio (T/M): 4.9±0.8
